From patent publication US20250092426, “CAS ENDONUCLEASES AND RELATED METHODS” (Flagship Pioneering Innovations VII, LLC, published 2025)

Target: T1, CasEnd-4 (synthetic construct)
T1 chain: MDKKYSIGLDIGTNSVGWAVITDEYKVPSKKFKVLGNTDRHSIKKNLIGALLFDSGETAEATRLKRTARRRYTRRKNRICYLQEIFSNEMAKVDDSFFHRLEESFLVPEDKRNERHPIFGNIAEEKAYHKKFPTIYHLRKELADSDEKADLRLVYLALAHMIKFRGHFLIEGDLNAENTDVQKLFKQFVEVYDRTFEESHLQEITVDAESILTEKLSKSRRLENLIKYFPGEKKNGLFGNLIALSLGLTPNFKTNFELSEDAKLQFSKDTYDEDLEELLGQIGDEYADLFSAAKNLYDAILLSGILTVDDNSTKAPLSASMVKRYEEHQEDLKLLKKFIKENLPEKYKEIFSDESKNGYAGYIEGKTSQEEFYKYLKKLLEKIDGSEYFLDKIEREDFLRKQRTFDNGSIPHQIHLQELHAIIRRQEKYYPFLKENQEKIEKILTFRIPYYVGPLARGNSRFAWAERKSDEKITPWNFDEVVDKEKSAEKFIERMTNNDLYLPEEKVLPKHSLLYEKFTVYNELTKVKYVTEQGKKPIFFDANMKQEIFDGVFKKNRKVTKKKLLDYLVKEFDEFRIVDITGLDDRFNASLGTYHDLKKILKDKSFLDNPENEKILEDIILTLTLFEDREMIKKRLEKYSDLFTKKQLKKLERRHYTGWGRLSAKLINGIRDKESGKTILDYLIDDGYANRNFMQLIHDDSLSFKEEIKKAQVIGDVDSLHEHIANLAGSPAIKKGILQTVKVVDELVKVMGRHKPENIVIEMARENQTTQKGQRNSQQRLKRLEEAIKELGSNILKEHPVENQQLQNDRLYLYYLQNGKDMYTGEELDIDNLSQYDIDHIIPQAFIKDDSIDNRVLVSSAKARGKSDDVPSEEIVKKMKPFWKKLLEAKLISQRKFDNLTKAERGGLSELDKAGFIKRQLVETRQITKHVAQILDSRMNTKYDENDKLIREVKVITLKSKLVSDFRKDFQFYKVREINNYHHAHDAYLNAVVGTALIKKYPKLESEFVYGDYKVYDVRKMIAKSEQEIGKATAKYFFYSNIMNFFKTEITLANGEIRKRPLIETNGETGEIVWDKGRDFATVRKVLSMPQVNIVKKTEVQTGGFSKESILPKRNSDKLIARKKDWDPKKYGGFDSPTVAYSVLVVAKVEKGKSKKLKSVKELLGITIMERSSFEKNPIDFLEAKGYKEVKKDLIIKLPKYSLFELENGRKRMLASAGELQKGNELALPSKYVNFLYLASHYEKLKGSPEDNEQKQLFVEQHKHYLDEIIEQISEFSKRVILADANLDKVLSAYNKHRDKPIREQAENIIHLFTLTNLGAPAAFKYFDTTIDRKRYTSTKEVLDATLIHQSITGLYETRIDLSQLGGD
Assay: cell_activity; +++; HEK293T; PAM not stated
Method in brief: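 Editing activity was scored as the fraction of GFP+ cells on day 4 by flow cytometry. BFP-expressing HEK293T cells (250,000) received by nucleofection 200 ng plasmid for the RT-Cas fusion protein and 200 ng template RNA plasmid designed to convert BFP to GFP.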

B1: BFP-to-GFP template RNA ; BFP reporter protospacer (ssRNA ; dsDNA)
RNA: GCCGAAGCACUGCACGCCGUGUUUUAGAGCUAGAAAUAGCAAGUUAAAAUAAGGCUAGUCCGUUAUCAACUUGAAAAAGUGGCACCGAGUCGGUGCACCCUGACGUACGGCGUGCAGUGCUU
DNA 1: GCCGAAGCACTGCACGCCGT
DNA 2: ACGGCGTGCAGTGCTTCGGC
activity: ≥ 100 % of reference
